Measurements published in patent US20240101642A1.

Assays:
Assay in all cases: cell-based or functional assay
[1] = molecular target: wild-type (WT) β2AR reconstituted in high-density lipoprotein particles (HDL-β2AR), non-phosphorylated (human) (UniProt P07550)
[2] = molecular target: phosphopeptide-ligated β2AR with a deletion of the third intracellular loop (β2ARppΔ238-267), in HDL particles (human) (UniProt P07550)
[3] = molecular target: sortase-ligated phosphopeptide β2AR reconstituted in HDL particles (HDL-β2ARpp) (human) (UniProt P07550)
[4] = molecular target: β2AR ligated to a non-phosphorylated version of the V2R peptide, in HDL particles (β2ARnp) (human) (UniProt P07550)

| fold increase of isoproterenol affinity by the transducer [1] [fold] | log IC50 of isoproterenol (ISO), [125I]-CYP competition binding, in the presence of Gs (no transducer: -6.82+/-0.03) [1] [log] | log IC50 of isoproterenol (ISO), competition radioligand binding, in the presence of Gs (no transducer: -6.91+/-0.04) [2] [log] | fold increase of isoproterenol affinity by the transducer [3] [fold] | log IC50 of isoproterenol (ISO), [125I]-CYP competition binding, in the presence of Gs (no transducer: -6.24+/-0.04) [3] [log] | log IC50 of isoproterenol (ISO), [125I]-CYP competition binding, in the presence of Gs (no transducer: -6.42+/-0.09) [4] [log] | log IC50 of isoproterenol (ISO), [125I]-CYP competition binding, in the presence of βarr1 (no transducer: -6.24+/-0.04) [3] [log] | log IC50 of isoproterenol (ISO), competition radioligand binding, in the presence of βarr1 (no transducer: -6.30+/-0.05) [3] [log] | log IC50 of isoproterenol (ISO), competition radioligand binding, in the presence of βarr1 Δ62-77 (no transducer: -6.30+/-0.05) [3] [log] | Substance |
| --- | --- | --- | --- | --- | --- | --- | --- | --- | --- |
| 1000 | -8.88 | -8.85 | 800 | -9.15 | -9.02 |  |  |  | heterotrimeric Gs protein (short Gαs splice variant, Gβ1-His6, Gγ2) (from UniProt P62873 2-340; P59768 2-68) |
|  |  |  | 9 |  |  | -7.14 | -7.25 |  | β-arrestin1, minimal cysteine and truncated variant of rat βarr1 (βarr1-MC-393) (from UniProt P29066 1-393) |
|  |  |  |  |  |  |  |  | -6.48 | finger loop deletion mutant of β-arrestin1 (βarr1 Δ62-77) in βarr1-MC-393 (from UniProt P29066 1-61; P29066 78-393) |
